Assay results: patent US20240150440A1 (LUMEN BIOSCIENCE, published 2024)
Like-named read-outs stand apart in the source and are kept apart here.

Legend:
[1] = molecular target: T1, recombinant SARS-CoV-2 RBD with C-terminal AviTag (SARS-CoV-2, UniProt P0DTC2 319-541); test: ELISA, competition with coated ACE2-Fc for RBD [Cont. 6]
[2] = molecular target: SARS-COV-2 Wuhan Reference RBD (SARS-CoV-2, UniProt P0DTC2 319-541); test: ELISA, RBD coated
[3] = molecular target: T1, recombinant SARS-CoV-2 RBD with …; test: BLI, biotinylated RBD on streptavidin biosensors [Cont. 6]
[4] = molecular target: T1, recombinant SARS-CoV-2 RBD with …; test: ELISA, competition with coated ACE2-Fc for RBD [Cont. 8]
[5] = molecular target: T1, recombinant SARS-CoV-2 RBD with …; test: ELISA, competition with coated ACE2-Fc for RBD [Cont. 1]
[6] = molecular target: T1, recombinant SARS-CoV-2 RBD with …

Binder	IC50 [1]	EC50 [2]	Kd [3]	IC50 [4]	further results
PP1147 MBP-5HVZ-PAPA-R5a-B7-H6 (VHH, Form: Dimer) VHH: QVQLVESGGGLVQPGGSLRLSCAASGAFFSYGAIHWFRQAPGKQREEVAAITSGGSTGYADSVKGRFTISRDNAKNTVYLQMNSLKPEDTAVYYCNAGVVWLPSNAAYNLWGQGTQVTVSS	2.4 nM	0.36 nM			
PP1159 MPB-scTRP-PAPA-R5a-B7-H6 (VHH, Form: Trimer) VHH: QVQLVESGGGLVQPGGSLRLSCAASGAFFSYGAIHWFRQAPGKQREEVAAITSGGSTGYADSVKGRFTISRDNAKNTVYLQMNSLKPEDTAVYYCNAGVVWLPSNAAYNLWGQGTQVTVSS	56.5 nM				
PP1135 MBP-4B0F-PAPA-R5a-B7-H6 (VHH, Form: Heptamer) VHH: QVQLVESGGGLVQPGGSLRLSCAASGAFFSYGAIHWFRQAPGKQREEVAAITSGGSTGYADSVKGRFTISRDNAKNTVYLQMNSLKPEDTAVYYCNAGVVWLPSNAAYNLWGQGTQVTVSS	18.2 nM				
PP880 MBP-R5a-B5-H6 (VHH, Form: Monomer) VHH: QVQLVESGGGLVQPGGSLRLSCAASGDDFIENAISWYRQAPGKGREWVAAVTLGGHSNYADSVKGRFTISRDNAKNTVYLQMNSLKPEDTAVYYCNYPVGIPAVAIDGRRSYGYWGQGTQVTVSS	43.9 nM		60.8 nM		
PP899 MBP-5HVZ-R5a-B5-H6 (VHH, Form: Dimer) VHH: QVQLVESGGGLVQPGGSLRLSCAASGDDFIENAISWYRQAPGKGREWVAAVTLGGHSNYADSVKGRFTISRDNAKNTVYLQMNSLKPEDTAVYYCNYPVGIPAVAIDGRRSYGYWGQGTQVTVSS	0.9 nM				
PP881 MBP-R5a-F2-H6 (VHH, Form: Monomer) VHH: QVQLVESGGGLVQPGGSLRLSCAASGSISSIEAMSWFRQAPGKQREGVATMASGGDTSYADSVKGRFTISRDNAKNTVYLQMNSLKPEDTAVYYCAAQTYRPDTWGRYTFWGQGTQVTVSS			705 nM		
PP900 MBP-5HVZ-R5a-F2-H6 (VHH, Form: Dimer) VHH: QVQLVESGGGLVQPGGSLRLSCAASGSISSIEAMSWFRQAPGKQREGVATMASGGDTSYADSVKGRFTISRDNAKNTVYLQMNSLKPEDTAVYYCAAQTYRPDTWGRYTFWGQGTQVTVSS	1.7 nM	0.47 nM	9.13 nM		
PP901 MBP-5HVZ-R1e-B2-H6 (VHH, Form: Dimer) VHH: QVQLVESGGGLVQPGGSLRLSCAASGQITAENYMHWYRQAPGKQREWVAAITTGGSTLYADSVKGRFTISRDNAKNTVYLQMNSLKPEDTAVYYCNADRSYFPDYWGQGTQVTVSS			197 nM		
PP883 MBP-R1e-D4-H6 (VHH, Form: Monomer) VHH: QVQLVESGGGLVQPGGSLRLSCAASGSIREINAMHWVRQAPGKGRELVASIDSGSLDYYADSVKGRFTISRDNAKNTVYLQMNSLKPEDTAVYYCAASRSGDYRYWGQGTQVTVSS			47 nM		
PP884 MBP-R1i-A11-H6 (VHH, Form: Monomer) VHH: QVQLVESGGGLVQPGGSLRLSCAASGSILQINAIHWFRQAPGKQREEVAAITSGGSTGYADSVKGRFTISRDNAKNTVYLQMNSLKPEDTAVYYCAATSTRGGLDSDYWGQGTQVTVSS	173 nM		23.7 nM		
PP903 MBP-5HVZ-R1i-A11-H6 (VHH, Form: Dimer) VHH: QVQLVESGGGLVQPGGSLRLSCAASGSILQINAIHWFRQAPGKQREEVAAITSGGSTGYADSVKGRFTISRDNAKNTVYLQMNSLKPEDTAVYYCAATSTRGGLDSDYWGQGTQVTVSS	1.5 nM	0.27 nM	6.98 nM		
PP885 MBP-R5b-C5-H6 (VHH, Form: Monomer) VHH: QVQLVESGGGLVQPGGSLRLSCAASGSPFKTQTVHWFRQAPGKGREWVASITSGSGTQYMDSVKGRFTISRDNAKNTVYLQMNSLKPEDTAVYYCAAANDGYGVDWGQGTQVTVSS			88.5 nM		
PP904 MBP-5HVZ-R5b-C5-H6 (VHH, Form: Dimer) VHH: QVQLVESGGGLVQPGGSLRLSCAASGSPFKTQTVHWFRQAPGKGREWVASITSGSGTQYMDSVKGRFTISRDNAKNTVYLQMNSLKPEDTAVYYCAAANDGYGVDWGQGTQVTVSS	2.5 nM	1.06 nM	11.8 nM		
PP906 MBP-5HVZ-S1b-E7-H6 (VHH, Form: Dimer) VHH: QVQLVESGGGLVQPGGSLRLSCAASGGEFSDNGLHWFRQAPGKQREFVATASSDGSTQYRDSVKGRFTISRDNAKNTVYLQMNSLKPEDTAVYYCTALLMSSAGEYDVWGQGTQVTVSS	35.7 nM	2 nM	15.5 nM		
PP922 MBP-R5a-F5-H6 (VHH, Form: Monomer) VHH: QVQLVESGGGLVQPGGSLRLSCAASGYHASILAMHWVRQAPGKEREWVASMTWSDMTQYSDSVKGRFTISRDNAKNTVYLQMNSLKPEDTAVYYCAATYVTRDRPWTHWGQGTQVTVSS				97.9 nM	
PP933 MBP-5HVZ-R5e-C1-H6 (VHH, Form: Dimer) VHH: QVQLVESGGGLVQPGGSLRLSCAASGSIPYVQAMSWFRQAPGKGREGVASIGWGGGTYYADSVKGRFTISRDNAKNTVYLQMNSLKPEDTAVYYCAAKFRENFSFYDYWGQGTQVTVSS		4.9 nM		1.9 nM	
PP935 MBP-5HVZ-S3b-E11-H6 (VHH, Form: Dimer) VHH: QVQLVESGGGLVQPGGSLRLSCAASGDIYSQSAMAWYRQAPGKEREFVAAITTTGSRSYKDSVKGRFTISRDNAKNTVYLQMNSLKPEDTAVYYCAAFAVRSSSVSDAYDYWGQGTQVTVSS		0.47 nM		12.2 nM	
PP1094 MBP-5HVZ-PAPA-RN-1-H6 (VHH) VHH: QVQLVESGGGLVQPGGSLRLSCAASGYIFEGGPTAWFRQAPGKGREFVAAITTSGETSYAYSVKGRFTISRDNAKNTVYLQMNSLKPEDTAVYYCNATDRDETGYDYWGQGTQVTVSS		0.96 nM		7.8 nM	
PP1095 MBP-5HVZ-PAPA-RN-2-H6 (VHH) VHH: QVQLVESGGGLVQPGGSLRLSCAASGSYFSKNAVHWYRQAPGKGREWVAALTNSGSGNYKDSVKGRFTISRDNAKNTVYLQMNSLKPEDTAVYYCTANISESTGQGYDYWGQGTQVTVSS		0.78 nM		3.2 nM	
PP1096 MBP-5HVZ-PAPA-RN-3-H6 (VHH) VHH: QVQLVESGGGLVQPGGSLRLSCAASGFEFTYRAVHWFRQAPGKGREWVAGVVSGGSTYYADSVKGRFTISRDNAKNTVYLQMNSLKPEDTAVYYCNAGPQAEEDTYDYWGQGTQVTVSS		1.47 nM		46.8 nM	
PP1097 MBP-5HVZ-PAPA-RN-5-H6 (VHH) VHH: QVQLVESGGGLVQPGGSLRLSCAASGSSFRILAMHWYRQAPGKNREWVAVITSNGNTYYADSVKGRFTISRDNAKNTVYLQMNSLKPEDTAVYYCNADTLDLDDGATYNYWGQGTQVTVSS		0.25 nM		2.3 nM	
PP1098 MBP-5HVZ-PAPA-RN-9-H6 (VHH) VHH: QVQLVESGGGLVQPGGSLRLSCAASGLRFAMTEMAWFRQAPGKQREFVALITEGGSGSYGDSVKGRFTISRDNAKNTVYLQMNSLKPEDTAVYYCAALHYTEGANTESATTFDYWGQGTQVTVSS		0.83 nM		2.3 nM	
PP1100 MBP-5HVZ-PAPA-RN-14-H6 (VHH, Form: Dimer) VHH: QVQLVESGGGLVQPGGSLRLSCAASGENFSGNLVHWFRQAPGKAREGVATVTSTGSGYYADSVKGRFTISRDNAKNTVYLQMNSLKPEDTAVYYCAAKHQKGEIPYYDWGQGTQVTVSS		0.31 nM		3.2 nM	
PP1144 MBP-5HVZ-PAPA-R2c-F6-H6 (VHH, Form: Dimer) VHH: QVQLVESGGGLVQPGGSLRLSCAASGRILAANIVHWYRQAPGKEREGVAGITTGGSNYYSDSVKGRFTISRDNAKNTVYLQMNSLKPEDTAVYYCNALGLGSASGSYESWGQGTQVTVSS					IC50 [5]: 3.2 nM
PP1156 MPB-scTRP-PAPA-R2c-F6-H6 (VHH, Form: Trimer) VHH: QVQLVESGGGLVQPGGSLRLSCAASGRILAANIVHWYRQAPGKEREGVAGITTGGSNYYSDSVKGRFTISRDNAKNTVYLQMNSLKPEDTAVYYCNALGLGSASGSYESWGQGTQVTVSS					IC50 [5]: 165 nM
PP1132 MBP-4B0F-PAPA-R2c-F6-H6 (VHH, Form: Heptamer) VHH: QVQLVESGGGLVQPGGSLRLSCAASGRILAANIVHWYRQAPGKEREGVAGITTGGSNYYSDSVKGRFTISRDNAKNTVYLQMNSLKPEDTAVYYCNALGLGSASGSYESWGQGTQVTVSS					IC50 [5]: 158 nM
PP1157 MPB-scTRP-PAPA-R2d-A6-H6 (VHH, Form: Trimer) VHH: QVQLVESGGGLVQPGGSLRLSCAASGSGASIGAMHWFRQAPGKGREWVASITSAGNTYYGDSVKGRFTISRDNAKNTVYLQMNSLKPEDTAVYYCNALAGANYESQWEEYNYWGQGTQVTVSS					IC50 [5]: 4.7 nM
R5C-A2 (competition ELISA sample) (VHH) VHH: QVQLVESGGGLVQPGGSLRLSCAASGDIFSKNAMHWVRQAPGKQREFVAGIYSDGSSLYADSVKGRFTISRDNAKNTVYLQMNSLKPEDTAVYYCAALDYSARYRTWGQGTQVTVSS					IC50 [6]: 13.7 nM; Kd [6]: 13.2 nM
MBP-R5C-B1-H6 (VHH, not shown: large carriers; small tags and cut ends) VHH: QVQLVESGGGLVQPGGSLRLSCAASGSGFSNNAMHWYRQAPGKQREGVAGITSGSVSFYADSVKGRFTISRDNAKNTVYLQMNSLKPEDTAVYYCAAVTGSSTGNAGQGYLTWGQGTQVTVSS					Kd [6]: 55.3 nM
MBP-5HVZ-R5C-B2-H6 (VHH, not shown: large carriers; small tags and cut ends) VHH: QVQLVESGGGLVQPGGSLRLSCAASGSIFSLNWVHWFRQAPGKSREGVASINSGGHADYSDSVKGRFTISRDNAKNTVYLQMNSLKPEDTAVYYCAAGPYGAYNFNSWGQGTQVTVSS					IC50 [6]: 5.9 nM; Kd [6]: 57.3 nM
